According to PMC7857400 (Science (New York, N.y.), 2020):
Changes are numbered by the printed parent chain.

B1: Nb20 (VHH)
VHH: QVQLVESGGGLVQAGGSLRLSCAVSGAGAHRVGWFRRAPGKEREFVAAIGASGGMTNYLDSVKGRFTISRDNAKNTIYLQMNSLKPQDTAVYYCAARDIETAEYIYWGQGTQVTVSS
B2: Nb21 (VHH)
VHH: B1 VHH with A27L, S52N, M55N, I105T

How the values were obtained:
[1] = molecular target: T1, SARS-CoV-2 spike protein receptor binding domain (RBD) (SARS-CoV-2, UniProt P0DTC2); experiment: cell-based or functional assay
[2] = molecular target: T1, SARS-CoV-2 spike protein receptor …; experiment: SPR; conditions: both partners purified

Binder	IC50 of neutralisation, pseudotyped SARS-CoV-2 (luciferase reporter); RBD-hACE2 is the pair interfered with [1]	Kd [2]
B1	0.102 nM	0.0104 nM
B2	0.045 nM	–
